From article PMC7307101

Tests used:
[1] = target: trimeric influenza virus polymerase of A/turkey/England/50-92/1991(H5N1) (PB2, PB1-Gluc1, PA); assay: split-luciferase assay; conditions: parent: est. 30; read off a plot
[2] = target: trimeric influenza virus polymerase of A/England/195/2009(pH1N1) (PB2, PB1-Gluc1, PA); assay: split-luciferase assay; conditions: parent: est. 1.5; read off a plot

Question: What does the source list for “human ANP32A-Gluc2 (from UniProt P39687) I106V; P156S”?
Answer: response [1]: 55 NLR; response [2]: 3.5 NLR
